Several values for one entry are separate records, joined by “and”; a condition that tells them apart may be missing. Equal entries are not always repeated.
Details: Vibrio harveyi; pH 7; 25 °C; Urea; CD; NaH2PO4/K2HPO4 50 mM; transition: 4; whole UniProt chain shown

B1: Alkanal monooxygenase alpha chain wild type, P07740 (protein)
chain: MKFGNFLLTYQPPELSQTEVMKRLVNLGKASEGCGFDTVWLLEHHFTEFGLLGNPYVAAAHLLGATETLNVGTAAIVLPTAHPVRQAEDVNLLDQMSKGRFRFGICRGLYDKDFRVFGTDMDNSRALMDCWYDLMKEGFNEGYIAADNEHIKFPKIQLNPSAYTQGGAPVYVVAESASTTEWAAERGLPMILSWIINTHEKKAQLDLYNEVATEHGYDVTKIDHCLSYITSVDHDSNRAKDICRNFLGHWYDSYVNATKIFDDSDQTKGYDFNKGQWRDFVLKGHKDTNRRIDYSYEINPVGTPEECIAIIQQDIDATGIDNICCGFEANGSEEEIIASMKLFQSDVMPYLKEKQ
unfolding free energy: 18.8 kJ/mol and 11.7 kJ/mol
